Target: Lz-linker-DHFR 106-187 (yeast) (UniProt P03069)
Test: cell-based or functional assay

Lz-linker-DHFR 1-105 (from UniProt P03069 253-274)
cell survival in DHFR selection media lacking glycine, hypoxanthine and thymidine (-GHT): < 90 % viability

— patent US7691605
